Here are results for 73 sequences from the supplement of paper PMC10567573.

This data set is described as follows: protein stability index of a GFP-peptide fusion (GPS, HEK-293T) (PSI 1-6); higher = more stable.
The mark [1] stands for this setting: treatment: DMSO, c terminus: a fixed tail appended.
[2] abbreviates: treatment: MLN4924 1 uM, 8 h, c terminus: a fixed tail appended.

± gives the standard deviation.
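Further: 24-mer peptide tiles fused after GFP, lentivirally expressed, FACS-sorted into six equal bins by GFP/DsRed ratio, decoded by Illumina sequencing, PSI is the read-weighted mean bin number.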

Take MPPKFKRHLNDDDVTGSVKSERRN [VAMP4]: the protein stability index was found to be 4.79 ± 0.27 under setting [1] and 4.84 ± 0.18 under setting [2]. Take FLQEEAIDRNYVPGKSLAVSCPGW [SNX12]: the protein stability index by setting is: under setting [1], 2.73 ± 0.3; under setting [2], 3.2 ± 0.2. For the sequence SPFTNLLNGSSQPTTRNYPELNNN [CDC14A], the protein stability index was 4.04 ± 0.1 under setting [1] and 4.26 ± 0.16 under setting [2]. For RLVDRDSVWGYDLGLRSLIPAVLT [MYORG], in that order: 2.25 ± 0.54 and 2.28 ± 0.12. For DLDSRTDSDIPEIPPSSDRTPEIL [CDS1], the protein stability index under setting [1] is 5.42 ± 0.21 and the protein stability index under setting [2] turned out to be 5.51 ± 0.21. DFLIRDSESSPSDFSVSLKASGKN [NCK2]: the protein stability index turned out to be 4.25 ± 0.25 under setting [1] and 4.4 ± 0.18 under setting [2].

In the case of QLKIRKSNQIPTEVRSKAEEVVSF [FUNDC2], the protein stability index is, setting by setting: under setting [1], 3.9 ± 0.45; under setting [2], 3.88 ± 0.25.

Regarding REHCPENRERVVSLIEDLQRELEI [ZNF449], the protein stability index under setting [1] turned out to be 3.91 ± 0.21 and the protein stability index under setting [2] worked out at 4 ± 0.28. For NLINQMLTINPAKRITAHEALKHP [CAMK2B], the protein stability index is 2.38 ± 0.32 under setting [1] and 2.23 ± 0.12 under setting [2]. KLTDFGFAKKLVDRTWTLCGTPEY [PRKX]: the protein stability index amounted to 2.12 ± 0.11 under setting [1] and 2.27 ± 0.23 under setting [2].

As for GKEQGQNLARQWNNCAFLESSAKS [RAP1B], the protein stability index under setting [1] was 4.1 ± 0.17 and the protein stability index under setting [2] turned out to be 4.13 ± 0.14.

In the case of GFIRHTVNKITFSEQCYYIFGDLC [DVL3], the protein stability index turned out to be 3.11 ± 0.86 under setting [1] and 2.64 ± 0.16 under setting [2]. In the case of ELRRQAPPPPPPSRGGPPPPPPPP [WASL], the protein stability index under setting [1] stood at 4.49 ± 0.44 and the protein stability index under setting [2] was found to be 4.64 ± 0.09.

On to RIHVGKKYGDIPRGIFVVRGENVV [LSM1], for which the protein stability index by setting is: under setting [1], 2.37 ± 0.17; under setting [2], 2.24 ± 0.15. For AELLKKQEELNRKAEELDRREREL [SCAMP3], the protein stability index reads like this: under setting [1], 5.43 ± 0.26; under setting [2], 5.44 ± 0.33. For PAAGESLSGTRESLAQGPDAATTD [TBC1D10A], the protein stability index reads like this: under setting [1], 5.36 ± 0.32; under setting [2], 5.29 ± 0.13. YGRIVEVLLMKDRETNKSRGFAFV [RBMX]: the protein stability index by setting is: under setting [1], 2.9 ± 0.44; under setting [2], 2.48 ± 0.59. As to RRGQEPLSALLQFGVTYLEDYSAE [BCL2L13], the protein stability index turned out to be 3.11 ± 0.3 under setting [1] and 3.17 ± 0.43 under setting [2].

Regarding KCSDCGKAFLTKTMLIVHHRTHTG [ZNF649], the protein stability index runs as follows: under setting [1], 2.84 ± 0.27; under setting [2], 3.05 ± 0.45. Take METSASSSQPQDNSQVHRETEDVD [TMEM40]: the protein stability index under setting [1] came to 5.54 ± 0.25 and the protein stability index under setting [2] is 5.56 ± 0.32. As for DEDLRRQMQDDEQKTRLLEDSVSR [PALM], the protein stability index under setting [1] was 5.46 ± 0.32 and the protein stability index under setting [2] turned out to be 5.31 ± 0.38.

Turning to AIDRNYVPGKSLAVSCPGWSAVA [SNX12], the protein stability index reads like this: (treatment: DMSO, c terminus: native) 2.73 ± 0.33; (treatment: MLN4924 1 uM, 8 h, c terminus: native) 1.97 ± 0.31. As to KDIAHFWELGGGTSLLDLISIPIT [DYNC2LI1], the protein stability index came to 2.54 ± 0.54 under setting [1] and 2.07 ± 0.24 under setting [2].

In the case of HPDIFLPSEICDRLVNEYVELVNA [ZER1], the protein stability index is, setting by setting: under setting [1], 2.56 ± 0.17; under setting [2], 2.97 ± 0.35.

Take TDATAFWWGEWTKWTACSRSCGGG [ADAMTSL2]: the protein stability index under setting [1] is 2.24 ± 0.68 and the protein stability index under setting [2] turned out to be 2.59 ± 0.6. Sequence EELEQEELNKKMTNIRLPNVPSSS [CHMP4C] displayed a protein stability index under setting [1] of 5.27 ± 0.14 and a protein stability index under setting [2] of 5.29 ± 0.15.

For the sequence STPFKPLALKTPPRVLTLSERPLD [MFF], the protein stability index reads like this: under setting [1], 4.08 ± 0.17; under setting [2], 4 ± 0.15. As to LNAELEEKMMQEAEKLKAQGEYSR [CCDC89], the protein stability index is 3.61 ± 0.28 under setting [1] and 3.71 ± 0.39 under setting [2]. As for LHYGLPVVVKLLHPPSHWPLIKAT [CTNNB1], the protein stability index is, setting by setting: under setting [1], 2.3 ± 0.45; under setting [2], 2.46 ± 0.42.

As to ADISMIGQFGVGFYSAYLVAEKVV [HSP90AB1], under setting [2], the protein stability index was found to be 2.86 ± 0.44.

For the sequence VHQRGSSTAKKEDINLSVRKLLNR [TRIP13], the protein stability index reads like this: under setting [1], 3.72 ± 0.31; under setting [2], 3.87 ± 0.25. For AKADTTSTVTPVPGQEKGSALEGR [EHMT1] the same measures were 5.3 ± 0.24 and 5.38 ± 0.12.

Regarding MQCLISNVEAQLSEIRCDLERQNQ [KRT36], the protein stability index reads like this: under setting [1], 3.53 ± 0.11; under setting [2], 3.32 ± 0.22. With KWLLWTEHQYRLPPMGKAFQELAG [SPDEF], the protein stability index by setting is: under setting [1], 2.44 ± 0.55; under setting [2], 2.16 ± 0.48. For IKSIVEASKGCQLGKTEQGFENMD [TRIM63], the protein stability index reads like this: under setting [1], 4.54 ± 0.31; under setting [2], 4.38 ± 0.33. Turning to VTGETRVLSSTTLLPRQPLPLGIK [PALM], the protein stability index stood at 3.66 ± 0.35 under setting [1] and 3.63 ± 0.22 under setting [2]. In the case of EHRHAAAALAAMNGRKIMGKEVKV [TIA1], the protein stability index under setting [1] was found to be 3.88 ± 0.23 and the protein stability index under setting [2] is 3.85 ± 0.27. As to SRLVKYPLLLKEILKHTPKEHPDV [NET1], the protein stability index stood at 2.71 ± 0.18 under setting [1] and 2.92 ± 0.32 under setting [2]. With KPWDFPSVHNDLWESWFVPDPAGI [GLT8D2], the protein stability index is, setting by setting: under setting [1], 2.96 ± 0.38; under setting [2], 2.69 ± 0.16. QGPGGDEDDDEEDTDKLLNSASDP [PSD2]: the protein stability index by setting is: under setting [1], 5.59 ± 0.26; under setting [2], 5.54 ± 0.21.

For the sequence VKTRLEQEIATYRRLLEGEDAHLT [KRT17], the protein stability index by setting is: under setting [1], 3.62 ± 0.14; under setting [2], 3.77 ± 0.3.

EPQWFYEETESSDDVEVLTLKKFK [C8orf76]: the protein stability index is, setting by setting: under setting [1], 4.66 ± 0.094; under setting [2], 4.74 ± 0.15.

As for PLRLFLIIANTMAFQNDVYEWARD [SCD], the protein stability index worked out at 2.75 ± 0.61 under setting [1] and 2.87 ± 0.61 under setting [2]. Take KSVLKSDEEHMEEAITSASFLEQI [FAM189A2]: the protein stability index under setting [1] came to 4.76 ± 0.31 and the protein stability index under setting [2] was determined as 4.85 ± 0.2. For EELPCTCPLCTSDRGSCVSTTEGI [RHOBTB3] the same measures were 4.53 ± 0.22 and 4.62 ± 0.27. Regarding SVPIIGGFWETIFGNRIKRVKLIS [PHTF1], the protein stability index is, setting by setting: under setting [1], 2.29 ± 0.23; under setting [2], 1.94 ± 0.22. For LQSFEDLASISTYGFRGEALASIS [MLH1], the protein stability index by setting is: under setting [1], 2.78 ± 0.16; under setting [2], 2.71 ± 0.3.

On to GAKDHASIQMNVAEVSWEPGRREG [RPS21], for which the protein stability index by setting is: under setting [1], 4.14 ± 0.49; under setting [2], 4.41 ± 0.41.

As for AVPEDLADRLVRVHGDPAVWWVSQ [FUT8], the protein stability index is, setting by setting: under setting [1], 2.61 ± 0.29; under setting [2], 2.65 ± 0.039. For the sequence YQNSIDDRLLVERIFAQYMVPHNL [PDS5B], the protein stability index reads like this: under setting [1], 2.21 ± 0.55; under setting [2], 2.46 ± 0.79. Under setting [1], QKIQFKRETASLKLLPHQPRIVEM [PDZK1] yielded a protein stability index of 2.54 ± 0.39.

In the case of TLVDESDLYNWEVAIFGPPNTLYE [UBE2R2], the protein stability index came to 2.71 ± 0.17 under setting [1] and 2.81 ± 0.17 under setting [2]. For KIWRTPNGKTIEMDTQFTIRAREL [IQUB], in that order: 2.55 ± 0.24 and 2.66 ± 0.19. For FGLTYRDAENQKNWLDPAKEIKKQ [EPB41L3], the protein stability index is, setting by setting: under setting [1], 3.68 ± 0.082; under setting [2], 4.15 ± 0.089.

For the sequence SSDGSNFGWETKIKAWMDRYEEAN [KMT2E], the protein stability index was 3.79 ± 0.18 under setting [1] and 3.83 ± 0.15 under setting [2]. As to YKMFASRRKQRYWPFSMDCTGTEA [LOXL2], the protein stability index was found to be 2.3 ± 0.27 under setting [1] and 2.15 ± 0.33 under setting [2]. For SREFFNRRGELRHITKLKPWSLFD [SRPK2], the protein stability index amounted to 2.56 ± 0.07 under setting [1] and 2.9 ± 0.32 under setting [2].

On to RFVQAEGRRATLQRLVEALEENEL [TRADD], for which the protein stability index was 3.57 ± 0.39 under setting [1] and 3.62 ± 0.37 under setting [2]. Consider QLQCSPAELQAELLHSQARLAELE [FBF1], for which the protein stability index by setting is: under setting [1], 3.88 ± 0.41; under setting [2], 3.98 ± 0.26. For the sequence PGNRTCTGTSKRYQLCRVQECPPD [ADAMTSL2], the protein stability index stood at 3.61 ± 0.32 under setting [1] and 3.69 ± 0.045 under setting [2].

AEEWYKSKYADLSDAANRNHEALR [PRPH] gave a protein stability index under setting [1] of 4.27 ± 0.21 and a protein stability index under setting [2] of 4.43 ± 0.35. On to ITDSYPVVKRREGPAGHSKGELAP [POLD4], for which the protein stability index reads like this: under setting [1], 3.42 ± 0.47; under setting [2], 4.21 ± 0.45. AAQDRPMSPGDCPPETTETPKCSS [YJU2B]: the protein stability index is, setting by setting: under setting [1], 5.54 ± 0.24; under setting [2], 5.3 ± 0.34.

Turning to AGTGASRSSHSSDSGGSDVDLDPT [ELF3], the protein stability index is 5.59 ± 0.23 under setting [1] and 5.51 ± 0.22 under setting [2]. As for MAEAAALVWIRGPGFGCKAVRCAS [SDE2], the protein stability index by setting is: under setting [1], 2.45 ± 0.47; under setting [2], 2.35 ± 0.53. For the sequence LRVLGSMCQRLRSMQYNGSYFDRG [DFFB], the protein stability index under setting [1] stood at 2.14 ± 0.29 and the protein stability index under setting [2] was 2.23 ± 0.17. As for GPCKNCKMIMDTAGNDPYCFVEFH [TIA1], the protein stability index reads like this: under setting [1], 2.2 ± 0.31; under setting [2], 2.25 ± 0.35. VVGAKKIYAHRVILSACSPYFRAM [KLHL20]: the protein stability index is 2.78 ± 0.26 under setting [1] and 2.41 ± 0.84 under setting [2]. For LVDHVGSKTFLCIGSSVMAASLVT [SLC2A12], in that order: 3.06 ± 0.76 and 3.05 ± 0.57. Turning to ITNTDVDCLKACQEQIEAVLLNSL [CCND2], the protein stability index by setting is: under setting [1], 2.73 ± 0.2; under setting [2], 2.86 ± 0.39. In the case of LTNSNLPEEELDFFEILRLFFPVI [CNOT7], the protein stability index runs as follows: under setting [1], 2.39 ± 0.31; under setting [2], 2.47 ± 0.41.

ETRVWHRRDGKWQNVHFHRSGSPT [CAMK2D]: the protein stability index came to 3.74 ± 0.35 under setting [1] and 3.71 ± 0.17 under setting [2]. For ELQGLPELHEECEGNHPSARKLTA [NET1] the same measures were 4.87 ± 0.21 and 4.56 ± 0.41.
